System: eIF3 complex (purified, 13 subunits a-m) (rabbit (reticulocyte lysate))
Assay: EMSA
Details: EMSA: 25 mM Tris-HCl pH 7.5, 5 mM Mg(OAc)2, 70 mM KCl, 0.1 mM CaCl2, 0.1 mg/ml BSA, 2 mM TCEP, 30 min at 25 C, 0.7% agarose in TBE, 75 mM KCl, 4 C; for binding signal (% RNA shifted at high eIF3): high eIF3 (4-8 uM lanes quantified)

| Substance | binding signal (% RNA shifted at high eIF3) | Kd |
| --- | --- | --- |
| H4 137-241 (4E-SE) | 14 | – |
| H4 1-137 (TWJ) | 28 | – |
| H4 FL mRNA (1-375) | – | 4 µM |
| H4 241-375 (eIF3-BS) | 39 | – |

Reference: publication PMC8102920
